This note sets out measurements from the supplement of paper PMC12764529.

A short description of series [1]: folding stability dG unfold from chymotrypsin proteolysis; higher = more stable. The essentials: (§1)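 Unfolding free energy was derived, per protease or combined, by relating Bayesian-fitted K50 values from sequencing counts to a sequence-predicted unfolded-state K50 and a shared folded-state K50. The underlying digests exposed cysteine-free mini-proteins under 80 residues, in a PA-tagged cDNA display construct, to trypsin and chymotrypsin at 11 threefold-diluted concentrations and to a no-protease condition. A filter kept only designs with AlphaFold2 dimer inter-PAE above 15.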

The nature of series [2]: folding stability dG unfold (combined trypsin and chymotrypsin); higher = more stable. A digest of the protocol: as §1
A short description of series [3]: folding stability dG unfold from trypsin proteolysis; higher = more stable. The essentials: as §1

± gives the half width of the 95% confidence interval.

On to “SAGGSAGGSMETVTVLLNTPGTPVTFTFPVPAGVGEEAVKELVRKALPEVEIEVVEITTTPAASAGGSAGGS [r12_427_JUSTAS]”, for which the “folding stability dG unfold” value in series [1] stood at 0.585 ± 0.21 kcal/mol; in series [2], 0.463 ± 0.15 kcal/mol; in series [3], 0.338 ± 0.073 kcal/mol.
Taken in the same sequence, the figures for “SAGGSAGGSMETVVTVPLPDGRTLTITRYPDGTVTVTYPDGTPVATRPVAPDTSDEAVVAALASAGGSAGGS [r12_990_JUSTAS]” were 1.83 ± 0.023 kcal/mol, 1.54 ± 0.037 kcal/mol and 0.522 ± 0.016 kcal/mol.
Taken in the same sequence, the figures for “SAGGSAGGSMEVTVTPLPDGSLLVTVTVTTSSTPVPVELRFPPSASLEEIRAAAEARAAEVAASAGGSAGGS [r12_69_JUSTAS]” were 1.73 ± 0.025 kcal/mol, 1.57 ± 0.047 kcal/mol and 0.883 ± 0.029 kcal/mol.
Taken in the same sequence, the figures for “SAGGSAGGSMFKVIVESEDPEKALEEAKALIEKIEEEGIGEIKKFEFLIVPKDIPEYKKLKEKSAGGSAGGS [r12_551_TrMRF]” were 0.438 ± 0.18 kcal/mol, -0.0656 ± 0.3 kcal/mol and -0.306 ± 0.45 kcal/mol.
Regarding “SAGGSAGGSMGVTVTSEEDPEVRRVRETIETPSGSVVERDMVLTRPPDGPLLREALSEKVFRPSAGGSAGGS [r12_758_JUSTAS]”, the “folding stability dG unfold” value is -1.18 ± 0.48 kcal/mol in series [1], -0.582 ± 0.28 kcal/mol in series [2] and -0.324 ± 0.15 kcal/mol in series [3].
Taken in the same sequence, the figures for “SAGGSAGGSMIIIVKLPNGEELPIEVEGEEEAEKIAEEIVKALIEKGITPVSVEIRPIKPEEGSAGGSAGGS [r12_301_TrMRF]” were 2.28 ± 0.17 kcal/mol, 2.97 ± 0.21 kcal/mol and 3.13 ± 0.13 kcal/mol.
Turning to “SAGGSAGGSMIIRIKTENGEEIEIEAESEEEAKKAAEELKKELEEKGYKIEEVEIYEIPEEELSAGGSAGGS [r12_301_TrROS_Hall]”, the results for the “folding stability dG unfold” value in series [1], in series [2] and in series [3] were 2.32 ± 0.13 kcal/mol, 2.05 ± 0.26 kcal/mol and 1.13 ± 0.076 kcal/mol, respectively.
Taken in the same sequence, the figures for “SAGGSAGGSMIKRTVTVTVYFPGKPLSIPVEYTSEEELPVVAEEAVKPIIEKVPEYKIPEPKLSAGGSAGGS [r12_230_JUSTAS]” were 0.292 ± 0.2 kcal/mol, 0.561 ± 0.33 kcal/mol and 0.529 ± 0.21 kcal/mol.
The matching figures for “SAGGSAGGSMIVKLEDGTYLVRIVNKDTKEVIEIEVSAEEAEELAKELNIEKVEIVKAGEPLESAGGSAGGS [r12_294_TrROS_Hall]”: 2.71 ± 0.059 kcal/mol, 2.38 ± 0.17 kcal/mol and 1.78 ± 0.069 kcal/mol.
The matching figures for “SAGGSAGGSMIVVPESVSPEEAEATARQVAQELGISPDTPLEVEIKEVKTGENSVYEIRVTLRSAGGSAGGS [r12_252_JUSTAS]”: 0.19 ± 0.13 kcal/mol, 0.199 ± 0.092 kcal/mol and 0.097 ± 0.056 kcal/mol.
Regarding “SAGGSAGGSMKIKVEVEMEKVKDPKKKGEYIYKMKIKKVEIELSEEEKEKLKELAEKLGIEVESAGGSAGGS [r12_249_TrROS_Hall]”, the “folding stability dG unfold” value amounted to 2.35 ± 0.074 kcal/mol in series [1], 2.08 ± 0.17 kcal/mol in series [2] and 1.42 ± 0.066 kcal/mol in series [3].
Taken in the same sequence, the figures for “SAGGSAGGSMKIPEDETYEEKLPDGRKVTYTWEPESGLLKTTTTDPNNDTPTTSTYKVPPSSLLSAGGSAGG [r6_407_JUSTAS]” were 0.49 ± 0.31 kcal/mol, 0.262 ± 0.25 kcal/mol and 0.0466 ± 0.2 kcal/mol.
Regarding “SAGGSAGGSMKIPSDYTLTPIETKDNGASTVTLEKVTYPGPSLLATFLTPPDGTVTLLEVKPVSAGGSAGGS [r20_103_JUSTAS]”, the “folding stability dG unfold” value in series [1] was 1.24 ± 0.072 kcal/mol; in series [2] it was 0.997 ± 0.065 kcal/mol; in series [3], 0.525 ± 0.046 kcal/mol.
Taken in the same sequence, the figures for “SAGGSAGGSMKITKSPSGYYTVTINLPNGTTVEIKVSTSDPNATDEQIIEIAKPKAEEILKKSSAGGSAGGS [r12_642_JUSTAS]” were 2.87 ± 0.12 kcal/mol, 2.53 ± 0.14 kcal/mol and 1.16 ± 0.054 kcal/mol.
Taken in the same sequence, the figures for “SAGGSAGGSMKIYEVPPEVAENMSLEEIIESLVLPGYPAKAEAFEDEGPGYVLVDLFLPPELGSAGGSAGGS [r12_716_TrMRF]” were 1.02 ± 0.029 kcal/mol, 0.842 ± 0.13 kcal/mol and -0.666 ± 0.12 kcal/mol.
“SAGGSAGGSMKKIKVKIKITDKDGNKKEVEAEIFFDEETGKLYIKLPNGEVKEISLEDIEIVESAGGSAGGS [r12_256_TrROS_Hall]”: the “folding stability dG unfold” value in series [1] was determined as 4.01 ± 0.069 kcal/mol; in series [2], 3.63 ± 0.09 kcal/mol; in series [3] it was 2.46 ± 0.08 kcal/mol.
Taken in the same sequence, the figures for “SAGGSAGGSMKLEVEAELEVPLPNGKPKRFKVKFRVEPGESGVKVEVLEVDDPLVVEAIKKLFSAGGSAGGS [r12_743_TrMRF]” were 3 ± 0.072 kcal/mol, 2.65 ± 0.096 kcal/mol and 2.2 ± 0.034 kcal/mol.
Taken in the same sequence, the figures for “SAGGSAGGSMKLTLESASPDPNKVTYTIKFPGGETLTEELPEEEIEKRSKELGWNIKLFGPTKSAGGSAGGS [r12_676_JUSTAS]” were 0.098 ± 0.42 kcal/mol, -0.0928 ± 0.28 kcal/mol and -0.0326 ± 0.29 kcal/mol.
The matching figures for “SAGGSAGGSMKNIKEIKVERRKLPNGGEYYVVTITYPDGKEIIIEMSPEETLEEALEKAKELSSAGGSAGGS [r12_1047_JUSTAS]”: 3.01 ± 0.21 kcal/mol, 2.92 ± 0.13 kcal/mol and 2.87 ± 0.16 kcal/mol.
For the sequence “SAGGSAGGSMKPLGQGDFEDPDGWKIKISMYPDGWFRIEIYDKNGKPKETIPVPANDLPDILKSAGGSAGGS [r12_664_TrROS]”, the “folding stability dG unfold” value in series [1] came out at 1.43 ± 0.053 kcal/mol; in series [2], 1.21 ± 0.064 kcal/mol; in series [3] it was 0.664 ± 0.027 kcal/mol.
Taken in the same sequence, the figures for “SAGGSAGGSMKTITVTFSSEEEAKKAAEEILKKEGFDEKIKEVTLTYSKEGNVLTGTVTVKTPSAGGSAGGS [r12_7_JUSTAS]” were 1.2 ± 0.046 kcal/mol, 0.945 ± 0.089 kcal/mol and 0.449 ± 0.042 kcal/mol.
The matching figures for “SAGGSAGGSMKTKTIEIEIDGKKVRITIDSDGNITIEVPSEEVKEALKKLLPPGVKITKIEPVSAGGSAGGS [r12_9_TrROS_Hall]”: 1.61 ± 0.1 kcal/mol, 1.94 ± 0.21 kcal/mol and 2.15 ± 0.13 kcal/mol.
The matching figures for “SAGGSAGGSMKTLTLEGESEEEAIEKVKEYFKKKGINYKLLKIEISEKPNGTKIYTIDIDTKKSAGGSAGGS [r12_924_JUSTAS]”: 2.33 ± 0.1 kcal/mol, 2.04 ± 0.2 kcal/mol and 1.19 ± 0.1 kcal/mol.
For the sequence “SAGGSAGGSMKVEITKVEPETGPNGRPYYRVEVKVIGEDGSPYTFTFYFEKPSDIENAKISLDSAGGSAGGS [r20_130_TrMRF]”, the results for the “folding stability dG unfold” value in series [1], in series [2] and in series [3] were 3.91 ± 0.07 kcal/mol, 3.5 ± 0.21 kcal/mol and 2.67 ± 0.19 kcal/mol, respectively.
Taken in the same sequence, the figures for “SAGGSAGGSMKVYKLPGGYTVTVEPVDGGTLVTITLPDGSVKTKFVPPDEPVVVDPNGAKITVSAGGSAGGS [r12_281_JUSTAS]” were 2.55 ± 0.036 kcal/mol, 2.29 ± 0.077 kcal/mol and 1.85 ± 0.071 kcal/mol.
“SAGGSAGGSMKYTLLSTRKNPDGTELRLIEVSEDPEKAKEYLESQGAVEIEFKKNIMTVTFKSSAGGSAGGS [r20_222_JUSTAS]”: the entries for the “folding stability dG unfold” value in series [1], in series [2] and in series [3] were -0.321 ± 0.32 kcal/mol, -0.214 ± 0.17 kcal/mol and -0.216 ± 0.22 kcal/mol, respectively.
Taken in the same sequence, the figures for “SAGGSAGGSMLTIEKPMPGTTEEEALEYAEELKEKNPNYKIEVEIEKTEEGYLTVKIKLTKKESAGGSAGGS [r12_425_JUSTAS]” were 0.879 ± 0.12 kcal/mol, 0.972 ± 0.24 kcal/mol and 1.31 ± 0.12 kcal/mol.
Taken in the same sequence, the figures for “SAGGSAGGSMLVEVEYEGGERRTFPLENRSVEEAVEALPEGVTRVRVTVYLGEKPVEFEVERPSAGGSAGGS [r12_767_TrMRF]” were 1.07 ± 0.067 kcal/mol, 0.799 ± 0.052 kcal/mol and 0.271 ± 0.077 kcal/mol.
The matching figures for “SAGGSAGGSMLVLKVEVKIEVEEREVIGPDGKIKKEKKIKIEIKIELFELPPLTEEELKKLKESAGGSAGGS [r12_1060_TrROS_Hall]”: 4.14 ± 0.21 kcal/mol, 3.6 ± 0.72 kcal/mol and 2.73 ± 0.27 kcal/mol.
Consider “SAGGSAGGSMNPEVPYAKVTLELKLPDGTTATLTLEVPLEEIPKVIEELKKKGYEILSIKIEPSAGGSAGGS [r12_986_JUSTAS]”, for which the “folding stability dG unfold” value in series [1] was 5.02 ± 0.13 kcal/mol; in series [2], 5.07 ± 0.27 kcal/mol; in series [3], 4.17 ± 0.23 kcal/mol.
Taken in the same sequence, the figures for “SAGGSAGGSMNVSPEELEALARERIEALLAENPDVPRDDVVLEFEGRSESPGKVITLTLRVRASAGGSAGGS [r12_707_JUSTAS]” were -0.00174 ± 0.23 kcal/mol, 0.0895 ± 0.21 kcal/mol and 0.242 ± 0.14 kcal/mol.
Taken in the same sequence, the figures for “SAGGSAGGSMPFIKVKVRFIEPNGIERTFEIELPEDKNLDEAIKLAPLFAKNGLPVEIEEVEGSAGGSAGGS [r12_804_TrMRF]” were 0.0494 ± 0.44 kcal/mol, 0.466 ± 0.18 kcal/mol and 0.758 ± 0.089 kcal/mol.
The matching figures for “SAGGSAGGSMPLKLVELKPLEESTGENGVPTVRVELVLERPGERITVELEVSPEEIEALIKKLLSAGGSAGG [r6_379_JUSTAS]”: 1.07 ± 0.2 kcal/mol, 1.56 ± 0.19 kcal/mol and 2.03 ± 0.074 kcal/mol.
With “SAGGSAGGSMPPLAPDETVTQTLPSPDGSEVLVTYTWVPGEGLVETKVTDPATGKTTSTKTPVPSAGGSAGG [r6_440_JUSTAS]”, the “folding stability dG unfold” value in series [1] is -0.521 ± 0.31 kcal/mol; in series [2], -0.0833 ± 0.16 kcal/mol; in series [3] it was 0.0545 ± 0.067 kcal/mol.
As for “SAGGSAGGSMPTSSSSSLSSEAEVEALIEELKKKGAKEFTVDPGPGALTLTITYDDSTLTISSSAGGSAGGS [r12_846_JUSTAS]”, the “folding stability dG unfold” value came to 1.38 ± 0.057 kcal/mol in series [1], 1.12 ± 0.11 kcal/mol in series [2] and 0.838 ± 0.033 kcal/mol in series [3].
The matching figures for “SAGGSAGGSMPVVVEPTTIGDIEVTRVVLPDGTVVVYTKAPTTLKVTYRPLATGEEEEEVFPELSAGGSAGG [r6_555_JUSTAS]”: 0.829 ± 0.11 kcal/mol, 1.01 ± 0.056 kcal/mol and 1.01 ± 0.011 kcal/mol.
